Common to all, as to assay: binding, other
Assay [1] addresses T1, PAEP peptide on HLA (human).
T1 peptide: TLLDTDYDNFL

The target of assay [2] is T2, TRPM1 peptide on HLA (human).
T2 peptide: RLLEKHISL

The target in assay [3] is T3, LGSN peptide on HLA (human).
T3 peptide: ALGETFIRYFV

The target of assay [4] is T4, PAEP peptide on HLA (human).
T4 peptide: MMCQYLARV

The target in assay [5] is T5, XAGE1 peptide on HLA (human).
T5 peptide: ISQTPGINL

Assay [6] has as its target T6, KLK4 peptide on HLA (human).
T6 peptide: SIASQCPTA

In assay [7] the target is T7, NPSR1 peptide on HLA (human).
T7 peptide: AINPLIYCV

The target of assay [8] is T8, BRDT peptide on HLA (human).
T8 peptide: RLLDVNNQL

The target of assay [9] is T9, ASCL2 peptide on HLA (human).
T9 peptide: ALSPAERELL

For assay [10], the target named is T10, PAEP peptide on HLA (human).
T10 peptide: LLDTDYDNFL

B1: TCR of SEQ ID NOs 481 and 482 (TCR, V domains shown)
Valpha: KQEVTQIPAALSVPEGENLVLNCSFTDSAIYNLQWFRQDPGKGLTSLLLIQSSQREQTSGRLNASLDKSSGRSTLYIAASQPGDSATYLCAATDSWGKLQFGAGTQVVVTP
Vbeta: DTGVSQNPRHKITKRGQNVTFRCDPISEHNRLYWYRQTLGQGPEFLTYFRNEAQLEKSRLLSDRFSAERPKGSFSTLEIQRTEQGDSAMYLCASSLFSRGTNYGYTFGSGTRLTVV
B1: the binding result in assay [1] is given as “recognises”.

B2: TCR of SEQ ID NOs 605 and 606 (TCR, V domains shown)
Valpha: KQEVTQIPAALSVPEGENLVLNCSFTDSAIYNLQWFRQDPGKGLTSLLLIQSSQREQTSGRLNASLDKSSGRSTLYIAASQPGDSATYLCAAATRNNTGKLIFGQGTTLQVKP
Vbeta: NAGVTQTPKFRILKIGQSMTLQCTQDMNHNYMYWYRQDPGMGLKLIYYSVGAGITDKGEVPNGYNVSRSTTEDFPLRLELAAPSQTSVYFCASSKSDLGGYTFGSGTRLTVV
For the molecule B2, in assay [2], the binding result is recorded as “recognises”.

B3: TCR of SEQ ID NOs 415 and 416 (TCR, V domains shown)
Valpha: KQEVTQIPAALSVPEGENLVLNCSFTDSAIYNLQWFRQDPGKGLTSLLLIQSSQREQTSGRLNASLDKSSGRSTLYIAASQPGDSATYLCAVRGYQKVTFGTGTKLQVIP
Vbeta: NAGVTQTPKFQVLKTGQSMTLQCAQDMNHEYMSWYRQDPGMGLRLIHYSVGAGITDQGEVPNGYNVSRSTTEDFPLRLLSAAPSQTSVYFCASSPGIGELFFGEGSRLTVL
As for B3, in assay [3], the binding result is on record as “recognises”.

B4: TCR of SEQ ID NOs 607 and 608 (TCR, V domains shown)
Valpha: KQEVTQIPAALSVPEGENLVLNCSFTDSAIYNLQWFRQDPGKGLTSLLLIQSSQREQTSGRLNASLDKSSGRSTLYIAASQPGDSATYLCAVRGMNTGFQKLVFGTGTRLLVSP
Vbeta: NAGVTQTPKFQVLKTGQSMTLQCAQDMNHEYMSWYRQDPGMGLRLIHYSVGAGITDQGEVPNGYNVSRSTTEDFPLRLLSAAPSQTSVYFCASSPGVTSTEAFFGQGTRLTVV
Turning to B4, in assay [2], the binding result is on record as “recognises”.

B5: TCR of SEQ ID NOs 475 and 476 (TCR, V domains shown)
Valpha: QKEVEQNSGPLSVPEGAIASLNCTYSDRGSQSFFWYRQYSGKSPELIMFIYSNGDKEDGRFTAQLNKASQYVSLLIRDSQPSDSATYLCAVDGSYIPTFGRGTSLIVHP
Vbeta: NAGVTQTPKFRVLKTGQSMTLLCAQDMNHEYMYWYRQDPGMGLRLIHYSVGEGTTAKGEVPDGYNVSRLKKQNFLLGLESAAPSQTSVYFCASSSGGADTGELFFGEGSRLTVL
Consider B5, for which the binding result in assay [4] is on record as “recognises”.

B6: TCR of SEQ ID NOs 615 and 616 (TCR, V domains shown)
Valpha: QKEVEQNSGPLSVPEGAIASLSCTYSDRGSQSFFWYRQYSGKSPELIMSIYSNGDKEDGRFTAQLNKASQYVSLLIRDSQPSDSATYLCAVGAGGYNKLIFGAGTRLAVHP
Vbeta: NAGVTQTPKFRVLKTGQSMTLQCTQDMNHNYMYWYRQDPGMGLRLIHYSVGEGTTAKGEVPDGYNVSRSTTEDFPLRLLSAAPSQTSVYFCASRREGPLHFGNGTRLTVT
As to B6, the binding result in assay [5] was “recognises”.

B7: TCR of SEQ ID NOs 403 and 404 (TCR, V domains shown)
Valpha: KQEVTQIPAALSVPEGENLVLNCSFTDSAIYNLQWFRQDPGKGLTSLLLIQSSQREQTSGRLNASLDKSSGRSTLYIAASQPGDSATYLCAVRPRGDSWGKLQFGAGTQVVVTP
Vbeta: NAGVTQTPKFQVLKTGQSMTLQCAQDMNHEYMSWYRQDPGMGLRLIHYSVGAGITDQGEVPNGYNVSRSTTEDFPLRLLSAAPSQTSVYFCASSPTGYGEAFFGQGTRLTVV
As to B7, the binding result in assay [6] is on record as “recognises”.

B8: TCR of SEQ ID NOs 441 and 442 (TCR, V domains shown)
Valpha: QKEVEQNSGPLSVPEGAIASLNCTYSDRGSQSFFWYRQYSGKSPELIMSIYSNGDKEDGRFTAQLNKASQYVSLLIRDSQPSDSATYLCAVNDSGGYQKVTFGTGTKLQVIP
Vbeta: NAGVTQTPKFQVLKTGQSMTLQCAQDMNHEYMSWYRQDPGMGLRLIHYSVGAGITDQGEVPNGYNVSRSTTEDFPLRLLSAAPSQTSVYFCASSYSPGNGYTFGSGTRLTVV
For the molecule B8, in [7], the binding result was “recognises”.

B9: TCR of SEQ ID NOs 401 and 402 (TCR, V domains shown)
Valpha: KQEVTQIPAALSVPEGENLVLNCSFTDSAIYNLQWFRQDPGKGLTSLLLIQSSQREQTSGRLNASLDKSSGRSTLYIAASQPGDSATYLCAVSPPAAGNKLTFGGGTRVLVKP
Vbeta: NAGVTQTPKFRILKIGQSMTLQCAQDMNHNYMYWYRQDPGMGLKLIYYSVGAGITDKGEVPNGYNVSRSTTEDFPLRLELAAPSQTSVYFCASSLTWTGGFGYTFGSGTRLTVV
As to B9, the binding result in [6] is “recognises”.

B10: TCR of SEQ ID NOs 319 and 320 (TCR, V domains shown)
Valpha: KQEVTQIPVALSVPEGENLVLNCSFTDSAIYNLQWFRQDPGKGLTSLLLIQSSQREQTSGRLNASLDKSSGRSTLYIAASQPGDSATYLCAVKGGANNLFFGTGTRLTVIP
Vbeta: NAGVTQTPKFRILKIGQSMTLQCTQDMNHNYMYWYRQDPGMGLKLIYYSVGAGITDKGEVPNGYNVSRSTTEDFPLRLLSAAPSQTSVYFCASRGDGDRSPLHFGNGTRLTVT
For the molecule B10, the binding result in assay [8] is listed as “recognises”.

B11: TCR of SEQ ID NOs 321 and 322 (TCR, V domains shown)
Valpha: KQEVTQIPAALSVPEGENLVLNCSFTDSAIYNLQWFRQDPGKGLTSLLLIQSSQREQTSGRLNASLDKSSGRSTLYIAASQPGDSATYLCAVRGGYQKVTFGTGTKLQVIP
Vbeta: NAGVTQTPKFQVLKTGQSMTLQCAQDMNHNSMYWYRQDPGMGLRLIHYSVGAGITDQGEVPNGYNVSRSTTEDFPLRLLSAAPSQTSVYFCASRGDGDRSPLHFGNGTRLTVT
In the case of B11, the binding result in assay [8] is “recognises”.

B12: TCR of SEQ ID NOs 417 and 418 (TCR, V domains shown)
Valpha: KQEVTQIPAALSVPEGENLVLNCSFTDSAIYNLQWFRQDPGKGLTSLLLIQSSQREQTSGRLNASLDKSSGRSTLYIAASQPGDSATYLCAVRAQGGSEKLVFGKGTKLTVNP
Vbeta: NAGVTQTPKFRILKIGQSMTLQCTQDMNHNYMYWYRQDPGMGLKLIYYSVGAGITDKGEVPNGYNVSRSTTEDFPLRLELAAPSQTSVYFCASSYLGQDPEGAEAFFGQGTRLTVV
B12: the binding result in assay [3] is “recognises”.

B13: TCR of SEQ ID NOs 609 and 610 (TCR, V domains shown)
Valpha: KQEVTQIPAALSVPEGENLVLNCSFTDSAIYNLQWFRQDPGKGLTSLLLIQSSQREQTSGRLNASLDKSSGRSTLYIAASQPGDSATYLCAVPAQGGSEKLVFGKGTKLTVNP
Vbeta: NAGVTQTPKFQVLKTGQSMTLQCAQDMNHEYMSWYRQDPGMGLKLIYYSVGAGITDKGEVPNGYNVSRSTTEDFPLRLESAAPSQTSVYFCASTESPYYGYTFGSGTRLTVV
As for B13, in [2], the binding result is on record as “recognises”.

B14: TCR of SEQ ID NOs 299 and 300 (TCR, V domains shown)
Valpha: QKEVEQNSGPLSVPEGAIASLNCTYSDRGSQSFFWYRQYSGKSPELIMSIYSNGDKEDGRFTAQLNKASQYVSLLIRDSQPSDSATYLCAVDTGRRALTFGSGTRLQVQP
Vbeta: NAGVTQTPKFQVLKTGQSMTLLCAQDMNHNSMYWYRQDPGMGLRLIYYSASEGTTDKGEVPNGYNVSRLNKREFSLRLESAAPSQTSVYFCASSVGGTYGYTFGSGTRLTVV
In the case of B14, the binding result in assay [9] is on record as “recognises”.

B15: TCR of SEQ ID NOs 469 and 470 (TCR, V domains shown)
Valpha: QKEVEQNSGPLSVPEGAIASLNCTYSDRGSQSFFWYRQYSGKSPELIMSIYSNGDKEDGRFTAQLNKASQYVSLLIRDSQPSDSATYLCAVRRNTDKLIFGTGTRLQVFP
Vbeta: DTGVSQNPRHKITKRGQNVTFRCDPISEHNRLYWYRQTLGQGPEFLTYFQNEAQLEKSRLLSDRFSAERPKGSFSTLEIQRTEQGDSAMYLCASSPRDRSPYGYTFGSGTRLTVV
As for B15, the binding result in assay [10] is recorded as “recognises”.

B16: TCR of SEQ ID NOs 477 and 478 (TCR, V domains shown)
Valpha: QKEVEQNSGPLSVPEGAIASLNCTYSDRGSQSFFWYRQYSGKSPELIMSIYSNGDKEDGRFTAQLNKASQYVSLLIRDSQPSDSATYLCAVSGSARQLTFGSGTQLTVLP
Vbeta: DGGITQSPKYLFRKEGQNVTLSCEQNLNHDAMYWYRQDPGQGLRLIYYSQIVNDFQKGDIAEGYSVSREKKESFPLTVTSAQKNPTAFYLCASSPFADDSYGYTFGSGTRLTVV
For the molecule B16, in assay [4], the binding result was “recognises”.

B17: TCR of SEQ ID NOs 613 and 614 (TCR, V domains shown)
Valpha: QKEVEQNSGPLSVPEGAIASLNCTYSDRGSQSFFWYRQYSGKSPELIMSIYSNGDKEDGRFTAQLNKASQYVSLLIRDSQPSDSATYLCAVNEGYQKVTFGIGTKLQVIP
Vbeta: NAGVTQTPKFQVLKTGQSMTLQCAQDMNHEYMYWYRQDPGMGLRLIHYSVGAGITDQGEVPNGYNVSRSTTEDFPLRLLSAAPSQTSVYFCASSRDYDYGQYFGPGTRLTVT
Turning to B17, the binding result in assay [5] is on record as “recognises”.

B18: TCR of SEQ ID NOs 437 and 438 (TCR, V domains shown)
Valpha: QKEVEQNSGPLSVPEGAIASLNCTYSDRGSQSFFWYRQYSGKSPELIMSIYSNGDKEDGRFTAQLNKASQYVSLLIRDSQPSDSATYLCAVGGGADGLTFGKGTHLIIQP
Vbeta: NAGVTQTPKFRILKIGQSMTLQCTQDMNHNYMYWYRQDPGMGLKLIYYSVGAGITDKGEVPNGYNVSRSTTEDFPLRLELAAPSQTSVYFCASSYGNLGTEAFFGQGTRLTVV
With B18, in assay [7], the binding result is “recognises”.

B19: TCR of SEQ ID NOs 301 and 302 (TCR, V domains shown)
Valpha: QKEVEQNSGPLSVPEGAIASLNCTYSDRGSQSFFWYRQYSGKSPELIMSIYSNGDKEDGRFTAQLNKASQYVSLLIRDSQPSDSATYLCAVDTGRRALTFGSGTRLQVQP
Vbeta: NAGVTQTPKFQVLKTGQSMTLQCAQDMNHNSMYWYRQDPGMGLRLIYYSASEGTTDKGEVPNGYNVSRLNKREFSLRLESAAPSQTSVYFCASSTGGSYGYTFGSGTRLTVV
For the molecule B19, the binding result in [9] is reported as “recognises”.

B20: TCR of SEQ ID NOs 471 and 472 (TCR, V domains shown)
Valpha: KQEVTQIPAALSVPEGENLVLNCSFTDSAIYNLQWFRQDPGKGLTSLLLIQSSQREQTSGRLNASLDKSSGRSTLYIAASQPGDSATYLCAVSPINDYKLSFGAGTTVTVRA
Vbeta: KAGVTQTPRYLIKTRGQQVTLSCSPISGHRSVSWYQQTPGQGLQFLFEYFSETQRNKGNFPGRFSGRQFSNSRSEMNVSTLELGDSALYLCASSLVGTGGSPLHFGNGTRLTVT
Consider B20, for which, in [10], the binding result is reported as “recognises”.

For the origin of these results see patent US20230346885A1 (published 2023).
